Earlier results on 2 molecules are cited in US20160114005A1, “HYBRID PROTEIN THAT CONVERTS ARACHIDONIC ACID INTO PROSTACYCLIN” (UNIVERSITY OF HOUSTON SYSTEM, priority 2006, published 2016).

Values joined by “and” are separate entries in the source; they are usually repeats but may differ in a detail not shown here. Equal entries are not always repeated. Where two headings read alike, the source gives them in different places.

By Km is commonly meant the concentration of substrate that gives half-maximal velocity. For the molecule “COX2: Individual cyclooxygenase isoform-2 enzyme [reference compound]”, for the setting “individual COX2, previously characterized by several groups”, the Michaelis constant (Km) was 6.5 µM and 0.9 µM.

B1: PGIS: Individual prostacyclin synthase enzyme (protein, UniProt Q16647 1-500, looked up)
Prostacyclin synthase: MAWAALLGLLAALLLLLLLSRRRTRRPGEPPLDLGSIPWLGYALDFGKDAASFLTRMKEKHGDIFTILVGGRYVTVLLDPHSYDAVVWEPRTRLDFHAYAIFLMERIFDVQLPHYSPSDEKARMKLTLLHRELQALTEAMYTNLHAVLLGDATEAGSGWHEMGLLDFSYSFLLRAGYLTLYGIEALPRTHESQAQDRVHSADVFHTFRQLDRLLPKLARGSLSVGDKDHMCSVKSRLWKLLSPARLARRAHRSKWLESYLLHLEEMGVSEEMQARALVLQLWATQGNMGPAAFWLLLFLLKNPEALAAVRGELESILWQAEQPVSQTTTLPQKVLDSTPVLDSVLSESLRLTAAPFITREVVVDLAMPMADGREFNLRRGDRLLLFPFLSPQRDPEIYTDPEVFKYNRFLNPDGSEKKDFYKDGKRLKNYNMPWGAGHNHCLGRSYAVNSIKQFVFLVLVHLDLELINADVEIPEFDLSRYGFGLMQPEHDVPVRYRIRP
With B1, for the setting “individual PGIS, previously characterized by several groups”, the Km was 13.3 µM and 30 µM and 9.5 µM.
